One assay concerns the target T1, PARP1 SerADPr_(short) (UniProt P09874 1-1014, relatively short serine-linked ADP-ribose chains; sites not told).
T1 construct: PARP1, full-length construct, as m15; also called serine-auto-ADP-ribosylated PARP1 with relatively short chains; automodified PARP1
The assay can be described thus: co-IP; purified components: 100 nM FLAG-ALC1, 50 nM unmodified or H3S10ADPr3 nucleosomes, 100 nM PARP1 (unmodified, SerADPr long or short); 100 mM KCl, 25 mM HEPES pH 7.9, 2 mM MgCl2, 5% glycerol, 0.1% NP-40, 1 mM DTT; anti-FLAG M2 magnetic resin; western blot. Particulars: both partners purified. On the technique in general: In western blotting, separated proteins are transferred to a membrane and probed.

For the next assay, the target named is T2, PARP1 SerADPr_(long) (UniProt P09874 1-1014, long serine-linked ADP-ribose chains; a small population of aspartate- and/or glutamate-linked ADPr; sites not told).
T2 construct: PARP1, full-length construct, as m15; also called serine-auto-ADP-ribosylated PARP1 with long chains; automodified PARP1
T2 sequence (P09874 whole entry): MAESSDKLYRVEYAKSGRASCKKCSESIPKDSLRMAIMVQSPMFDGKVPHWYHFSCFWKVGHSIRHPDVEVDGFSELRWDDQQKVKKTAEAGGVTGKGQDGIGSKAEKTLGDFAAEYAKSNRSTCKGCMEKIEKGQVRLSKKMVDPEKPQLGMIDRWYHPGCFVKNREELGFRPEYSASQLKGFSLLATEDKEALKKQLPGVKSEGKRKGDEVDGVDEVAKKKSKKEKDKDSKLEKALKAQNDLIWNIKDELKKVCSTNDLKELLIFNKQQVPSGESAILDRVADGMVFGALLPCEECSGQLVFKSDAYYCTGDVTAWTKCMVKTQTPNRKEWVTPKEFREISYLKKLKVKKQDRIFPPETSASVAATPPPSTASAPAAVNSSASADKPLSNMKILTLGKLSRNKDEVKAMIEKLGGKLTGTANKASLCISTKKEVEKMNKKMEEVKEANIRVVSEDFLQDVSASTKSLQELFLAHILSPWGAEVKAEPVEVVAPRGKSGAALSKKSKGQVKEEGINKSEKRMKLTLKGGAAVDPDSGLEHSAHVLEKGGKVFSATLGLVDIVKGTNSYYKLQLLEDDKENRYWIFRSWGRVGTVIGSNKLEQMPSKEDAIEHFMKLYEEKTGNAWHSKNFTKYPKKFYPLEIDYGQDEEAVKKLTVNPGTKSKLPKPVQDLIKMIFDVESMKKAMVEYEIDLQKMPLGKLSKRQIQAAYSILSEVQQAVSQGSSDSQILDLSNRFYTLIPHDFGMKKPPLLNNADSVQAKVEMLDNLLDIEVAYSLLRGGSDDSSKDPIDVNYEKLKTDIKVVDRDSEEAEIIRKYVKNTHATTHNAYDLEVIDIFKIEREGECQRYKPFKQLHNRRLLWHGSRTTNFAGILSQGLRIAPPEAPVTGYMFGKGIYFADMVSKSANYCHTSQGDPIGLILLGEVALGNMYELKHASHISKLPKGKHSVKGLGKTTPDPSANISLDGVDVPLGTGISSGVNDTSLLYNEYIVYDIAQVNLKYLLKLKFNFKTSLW
The assay is described as above. Conditions: both partners purified.

For assay [1], the target named is H2BS6/H3S10ADPr4 nucleosome (UniProt P68431 22-136; P62805 1-103, H3A21C, tetra-ADP-ribose on S6 | tetra-ADP-ribose on S10). The assay can be described thus: cell-based or functional assay.

Data on one molecule can be found in PMC8683085, “Serine ADP-ribosylation marks nucleosomes for ALC1-dependent chromatin remodeling” (eLife, 2021).

T1 sequence (P09874 whole entry): as above

B1: ALC1 (full-length, 6xHis-1xFLAG-ALC1) (enzyme, UniProt Q86WJ1 1-897, looked up)
chain: MERAGATSRGGQAPGFLLRLHTEGRAEAARVQEQDLRQWGLTGIHLRSYQLEGVNWLAQRFHCQNGCILGDEMGLGKTCQTIALFIYLAGRLNDEGPFLILCPLSVLSNWKEEMQRFAPGLSCVTYAGDKEERACLQQDLKQESRFHVLLTTYEICLKDASFLKSFPWSVLVVDEAHRLKNQSSLLHKTLSEFSVVFSLLLTGTPIQNSLQELYSLLSFVEPDLFSKEEVGDFIQRYQDIEKESESASELHKLLQPFLLRRVKAEVATELPKKTEVVIYHGMSALQKKYYKAILMKDLDAFENETAKKVKLQNILSQLRKCVDHPYLFDGVEPEPFEVGDHLTEASGKLHLLDKLLAFLYSGGHRVLLFSQMTQMLDILQDYMDYRGYSYERVDGSVRGEERHLAIKNFGQQPIFVFLLSTRAGGVGMNLTAADTVIFVDSDFNPQNDLQAAARAHRIGQNKSVKVIRLIGRDTVEEIVYRKAASKLQLTNMIIEGGHFTLGAQKPAADADLQLSEILKFGLDKLLASEGSTMDEIDLESILGETKDGQWVSDALPAAEGGSRDQEEGKNHMYLFEGKDYSKEPSKEDRKSFEQLVNLQKTLLEKASQEGRSLRNKGSVLIPGLVEGSTKRKRVLSPEELEDRQKKRQEAAAKRRRLIEEKKRQKEEAEHKKKMAWWESNNYQSFCLPSEESEPEDLENGEESSAELDYQDPDATSLKYVSGDVTHPQAGAEDALIVHCVDDSGHWGRGGLFTALEKRSAEPRKIYELAGKMKDLSLGGVLLFPVDDKESRNKGQDLLALIVAQHRDRSNVLSGIKMAALEEGLKKIFLAAKKKKASVHLPRIGHATKGFNWYGTERLIRKHLAARGIPTYIYYFPRSKSAVLHSQSSSSSSRQLVP
notes: ALC1 (CHD1L), full-length gene synthesized by Twist Biosciences; also called FLAG-tagged ALC1; recombinant, full-length ALC1; source: Sf9 (baculovirus), purified (anti-FLAG M2 magnetic resin, FLAG peptide elution); not shown: FLAG, N-terminal, kept
In the case of B1, the binding result with PARP1 SerADPr_(short) and with PARP1 SerADPr_(long) was “binds” each time. The “ALC1 remodeling rate constant relative to the unmodified nucleosome (REA assay)” value in assay [1] was roughly 370 fold.
